{"source": "patent US20240141045A1", "about": "(PRECIGEN, published 2024)", "key": {"[1]": {"biological_target": "T1, PD-1 Fc fusion protein (UniProt Q15116 25-167, limits assumed)", "T1 construct": "Antigen immobilised on the CM5 chip in all PD-1 SPR assays; also called PD-1 fused to human Fc region; PD-1-Fc antigen; not shown: human Fc region", "T1 sequence (Q15116 25-167 limits assumed)": "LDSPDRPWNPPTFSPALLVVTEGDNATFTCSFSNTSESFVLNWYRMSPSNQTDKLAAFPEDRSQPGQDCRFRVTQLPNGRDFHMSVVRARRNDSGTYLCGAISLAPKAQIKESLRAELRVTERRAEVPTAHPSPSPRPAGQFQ", "assay": "SPR (Biacore 3000), recombinant PD-1 Fc immobilised on CM5 chip, fusion protein injected", "description": "Surface plasma resonance (SPR) analysis was performed using Biacore3000, CM5 chip, an amine-coupling kit, 10×HBS-P running buffer and Glycine for. […] Dissociation was allowed to proceed followed by regeneration of the chip surface."}, "[2]": {"biological_target": "TGF-β1 (UniProt P01137 279-390)", "sequence (P01137 279-390 limits assumed)": "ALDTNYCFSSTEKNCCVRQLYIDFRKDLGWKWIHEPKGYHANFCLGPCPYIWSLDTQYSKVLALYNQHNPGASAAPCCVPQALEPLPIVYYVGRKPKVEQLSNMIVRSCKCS", "assay": "cell-based or functional assay"}}, "data": [{"binder": "Anti-PD1 (VH7-VL6) IgG1-ADA2 (antibody, not shown: IgG1 heavy chain constant region; light chain constant region) heavy (part 1 of 2): QVQLVQSGVEVKKPGASVKVSCKASGYTFTNYYMYWVRQAPGQGLEWMGGINPSNGGTNFNEKFKNRVTLTTDSSTTTAYMELKSLQFDDTAVYYCARRDYRFDMGFDYWGQGTTVTVSS heavy (part 2 of 2): GGGGSGGGGSSIDETRAHLLLKEKMMRLGGRLVLNTKEELANERLMTLKIAEMKEAMRTLIFPPSMHFFQAKHLIERSQVFNILRMMPKGAALHLHDIGIVTMDWLVRNVTYRPHCHICFTPRGIMQFRFAHPTPRPSEKCSKWILLEDYRKRVQNVTEFDDSLLRNFTLVTQHPEVIYTNQNVVWSKFETIFFTISGLIHYAPVFRDYVFRSMQEFYEDNVLYMEIRARLLPVYELSGEHHDEEWSVKTYQEVAQKFVETHPEFIGIKIIYSDHRSKDVAVIAESIRMAMGLRIKFPTVVAGFDLVGHEDTGHSLHDYKEALMIPAKDGVKLPYFFHAGETDWQGTSIDRNILDALMLNTTRIGHGFALSKHPAVRTYSWKKDIPIEVCPISNQVLKLVSDLRNHPVATLMATGHPMVISSDDPAMFGAKGLSYDFYEVFMGIGGMKADLRTLKQLAMNSIKYSTLLESEKNTFMEIWKKRWDKFIADVATK light: EIVLTQSPATLSLSPGERATLSCRASKGVSTSGYSYLHWYQQKPGQAPRLLIYLASYLESGVPARFSGSGSGTDFTLTISSLEPEDFAVYYCQHSRDLPLTFGGGTKVEIK", "values": [{"measurement": "Kd", "setting": "[1]", "result": 0.509, "unit": "pM"}]}, {"binder": "Anti-PD1 (VH7-VL6) scFv-ADA2 (scFv) chain 1: QVQLVQSGVEVKKPGASVKVSCKASGYTFTNYYMYWVRQAPGQGLEWMGGINPSNGGTNFNEKFKNRVTLTTDSSTTTAYMELKSLQFDDTAVYYCARRDYRFDMGFDYWGQGTTVTVSS chain 2: EIVLTQSPATLSLSPGERATLSCRASKGVSTSGYSYLHWYQQKPGQAPRLLIYLASYLESGVPARFSGSGSGTDFTLTISSLEPEDFAVYYCQHSRDLPLTFGGGTKVEIK chain 3: GGGGSGGGGSSIDETRAHLLLKEKMMRLGGRLVLNTKEELANERLMTLKIAEMKEAMRTLIFPPSMHFFQAKHLIERSQVFNILRMMPKGAALHLHDIGIVTMDWLVRNVTYRPHCHICFTPRGIMQFRFAHPTPRPSEKCSKWILLEDYRKRVQNVTEFDDSLLRNFTLVTQHPEVIYTNQNVVWSKFETIFFTISGLIHYAPVFRDYVFRSMQEFYEDNVLYMEIRARLLPVYELSGEHHDEEWSVKTYQEVAQKFVETHPEFIGIKIIYSDHRSKDVAVIAESIRMAMGLRIKFPTVVAGFDLVGHEDTGHSLHDYKEALMIPAKDGVKLPYFFHAGETDWQGTSIDRNILDALMLNTTRIGHGFALSKHPAVRTYSWKKDIPIEVCPISNQVLKLVSDLRNHPVATLMATGHPMVISSDDPAMFGAKGLSYDFYEVFMGIGGMKADLRTLKQLAMNSIKYSTLLESEKNTFMEIWKKRWDKFIADVATK", "values": [{"measurement": "Kd", "setting": "[1]", "result": 130, "unit": "pM"}]}, {"binder": "Anti-PD1(VH7-VL6) IgG4-TGFβRII (antibody) heavy: QVQLVQSGVEVKKPGASVKVSCKASGYTFTNYYMYWVRQAPGQGLEWMGGINPSNGGTNFNEKFKNRVTLTTDSSTTTAYMELKSLQFDDTAVYYCARRDYRFDMGFDYWGQGTTVTVSSASTKGPSVFPLAPCSRSTSESTAALGCLVKDYFPEPVTVSWNSGALTSGVHTFPAVLQSSGLYSLSSVVTVPSSSLGTKTYTCNVDHKPSNTKVDKRVESKYGPPCPSCPAPEFLGGPSVFLFPPKPKDTLMISRTPEVTCVVVDVSQEDPEVQFNWYVDGVEVHNAKTKPREEQFNSTYRVVSVLTVLHQDWLNGKEYKCKVSNKGLPSSIEKTISKAKGQPREPQVYTLPPSQEEMTKNQVSLTCLVKGFYPSDIAVEWESNGQPENNYKTTPPVLDSDGSFFLYSRLTVDKSRWQEGNVFSCSVMHEALHNHYTQKSLSLSPGKGGGGSGGGGSIPPHVQKSVNNDMIVTDNNGAVKFPQLCKFCDVRFSTCDNQKSCMSNCSITSICEKPQEVCVAVWRKNDENITLETVCHDPKLPYHDFILEDAASPKCIMKEKKKPGETFFMCSCSSDECNDNIIFSEEYNTSNPD light: EIVLTQSPATLSLSPGERATLSCRASKGVSTSGYSYLHWYQQKPGQAPRLLIYLASYLESGVPARFSGSGSGTDFTLTISSLEPEDFAVYYCQHSRDLPLTFGGGTKVEIKRTVAAPSVFIFPPSDEQLKSGTASVVCLLNNFYPREAKVQWKVDNALQSGNSQESVTEQDSKDSTYSLSSTLTLSKADYEKHKVYACEVTHQGLSSPVTKSFNRGEC", "values": [{"measurement": "IC50, inhibition of TGF-β1 induced reporter gene activity (HEK-Blue TGF-β cells, SEAP)", "setting": "[2]", "result": 5.6, "unit": "pM"}]}, {"binder": "Anti-PD1 (VL6-VH7).IgG4(S108P).TGFbRII (antibody) heavy: not shown light: EIVLTQSPATLSLSPGERATLSCRASKGVSTSGYSYLHWYQQKPGQAPRLLIYLASYLESGVPARFSGSGSGTDFTLTISSLEPEDFAVYYCQHSRDLPLTFGGGTKVEIKRTVAAPSVFIFPPSDEQLKSGTASVVCLLNNFYPREAKVQWKVDNALQSGNSQESVTEQDSKDSTYSLSSTLTLSKADYEKHKVYACEVTHQGLSSPVTKSFNRGEC", "values": [{"measurement": "IC50, inhibition of TGF-β1 induced reporter gene activity (HEK-Blue TGF-β cells, SEAP)", "setting": "[2]", "result": 9.3, "unit": "pM"}]}, {"binder": "Anti-PD1 (VH7-VL6) IgG4-ADA2 (antibody, not shown: IgG4 heavy chain constant region) heavy (part 1 of 2): QVQLVQSGVEVKKPGASVKVSCKASGYTFTNYYMYWVRQAPGQGLEWMGGINPSNGGTNFNEKFKNRVTLTTDSSTTTAYMELKSLQFDDTAVYYCARRDYRFDMGFDYWGQGTTVTVSS heavy (part 2 of 2): GGGGSGGGGSSIDETRAHLLLKEKMMRLGGRLVLNTKEELANERLMTLKIAEMKEAMRTLIFPPSMHFFQAKHLIERSQVFNILRMMPKGAALHLHDIGIVTMDWLVRNVTYRPHCHICFTPRGIMQFRFAHPTPRPSEKCSKWILLEDYRKRVQNVTEFDDSLLRNFTLVTQHPEVIYTNQNVVWSKFETIFFTISGLIHYAPVFRDYVFRSMQEFYEDNVLYMEIRARLLPVYELSGEHHDEEWSVKTYQEVAQKFVETHPEFIGIKIIYSDHRSKDVAVIAESIRMAMGLRIKFPTVVAGFDLVGHEDTGHSLHDYKEALMIPAKDGVKLPYFFHAGETDWQGTSIDRNILDALMLNTTRIGHGFALSKHPAVRTYSWKKDIPIEVCPISNQVLKLVSDLRNHPVATLMATGHPMVISSDDPAMFGAKGLSYDFYEVFMGIGGMKADLRTLKQLAMNSIKYSTLLESEKNTFMEIWKKRWDKFIADVATK light: EIVLTQSPATLSLSPGERATLSCRASKGVSTSGYSYLHWYQQKPGQAPRLLIYLASYLESGVPARFSGSGSGTDFTLTISSLEPEDFAVYYCQHSRDLPLTFGGGTKVEIKRTVAAPSVFIFPPSDEQLKSGTASVVCLLNNFYPREAKVQWKVDNALQSGNSQESVTEQDSKDSTYSLSSTLTLSKADYEKHKVYACEVTHQGLSSPVTKSFNRGEC", "values": [{"measurement": "Kd", "setting": "[1]", "result": 0.0663, "unit": "pM"}]}, {"binder": "Anti-PD1 (VL5-VH6).IgG4 (antibody, V domains shown) VH: QVQLVESGGGVVQPGRSLRLDCKASGITFSNSGMHWVRQAPGKGLEWVAVIWYDGSKRYYADSVKGRFTISRDNSKNTLFLQMNSLRAEDTAVYYCATNDDYWGQGTLVTVSS VL: EIVLTQSPATLSLSPGERATLSCRASQSVSSYLAWYQQKPGQAPRLLIYDASNRATGIPARFSGSGSGTDFTLTISSLEPEDFAVYYCQQSSNWPRTFGQGTKVEIK", "values": [{"measurement": "IC50, inhibition of TGF-β1 induced reporter gene activity (HEK-Blue TGF-β cells, SEAP)", "setting": "[2]", "result": 9, "unit": "pM"}]}, {"binder": "Anti-PD1 (VH6-VL5) IgG4-ADA2 (antibody, not shown: IgG4 heavy chain constant region) heavy (part 1 of 2): QVQLVESGGGVVQPGRSLRLDCKASGITFSNSGMHWVRQAPGKGLEWVAVIWYDGSKRYYADSVKGRFTISRDNSKNTLFLQMNSLRAEDTAVYYCATNDDYWGQGTLVTVSS heavy (part 2 of 2): GGGGSGGGGSSIDETRAHLLLKEKMMRLGGRLVLNTKEELANERLMTLKIAEMKEAMRTLIFPPSMHFFQAKHLIERSQVFNILRMMPKGAALHLHDIGIVTMDWLVRNVTYRPHCHICFTPRGIMQFRFAHPTPRPSEKCSKWILLEDYRKRVQNVTEFDDSLLRNFTLVTQHPEVIYTNQNVVWSKFETIFFTISGLIHYAPVFRDYVFRSMQEFYEDNVLYMEIRARLLPVYELSGEHHDEEWSVKTYQEVAQKFVETHPEFIGIKIIYSDHRSKDVAVIAESIRMAMGLRIKFPTVVAGFDLVGHEDTGHSLHDYKEALMIPAKDGVKLPYFFHAGETDWQGTSIDRNILDALMLNTTRIGHGFALSKHPAVRTYSWKKDIPIEVCPISNQVLKLVSDLRNHPVATLMATGHPMVISSDDPAMFGAKGLSYDFYEVFMGIGGMKADLRTLKQLAMNSIKYSTLLESEKNTFMEIWKKRWDKFIADVATK light: not shown", "values": [{"measurement": "Kd", "setting": "[1]", "result": 0.0616, "unit": "pM"}]}]}
